# Test system: peptide library, one residue held at a place counted from the S/T acceptor
# Experiment: relative phosphorylation of the sub-library (ratio to the mean residue at this position); human; higher = residue favoured
# Conditions: M fixed; at -1
# Outline: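 Purified recombinant kinases (human or orthologue constructs) were incubated in 384-well plates with biotinylated degenerate peptide sub-libraries, each fixing one residue at one position around a central Ser/Thr. Peptides were at 50 μM, with 50 μM ATP spiked with γ-32P-ATP, for 90 min under kinase-specific conditions. Spots on streptavidin membranes were phosphorimaged and quantified by densitometry. Relative sub-library phosphorylation is a ratio to the mean residue at that position.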
# RIPK1, construct: aa1-327, sequence (Q13546 1-327, looked up): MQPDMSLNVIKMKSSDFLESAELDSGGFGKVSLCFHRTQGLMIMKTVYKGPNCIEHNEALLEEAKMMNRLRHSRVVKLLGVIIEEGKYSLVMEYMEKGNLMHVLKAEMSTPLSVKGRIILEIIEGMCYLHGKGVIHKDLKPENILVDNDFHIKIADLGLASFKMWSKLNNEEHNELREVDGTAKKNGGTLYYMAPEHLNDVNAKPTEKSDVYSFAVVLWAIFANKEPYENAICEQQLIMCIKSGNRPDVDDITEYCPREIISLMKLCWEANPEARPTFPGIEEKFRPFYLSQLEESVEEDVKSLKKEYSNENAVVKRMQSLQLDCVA
# AURKA, construct: Full length, sequence (O14965 whole entry, looked up): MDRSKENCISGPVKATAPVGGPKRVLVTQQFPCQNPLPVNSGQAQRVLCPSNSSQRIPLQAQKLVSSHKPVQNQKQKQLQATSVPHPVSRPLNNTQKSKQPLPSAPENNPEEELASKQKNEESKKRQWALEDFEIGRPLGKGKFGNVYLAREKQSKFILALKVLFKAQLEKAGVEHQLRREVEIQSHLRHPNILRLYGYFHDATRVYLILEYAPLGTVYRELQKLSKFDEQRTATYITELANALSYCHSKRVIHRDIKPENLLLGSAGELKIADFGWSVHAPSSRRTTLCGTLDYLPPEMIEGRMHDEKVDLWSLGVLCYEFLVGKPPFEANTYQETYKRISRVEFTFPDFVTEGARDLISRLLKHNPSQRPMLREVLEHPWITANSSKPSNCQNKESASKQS
row,Substance,relative phosphorylation
1,"AURKA, construct: Full length (from UniProt O14965)",1.38
2,"PRKACB, construct: Full length (from UniProt P22694)",0.856

# Same assay, conditions: M fixed; at -2
row,Substance,relative phosphorylation
1,"RIPK1, construct: aa1-327 (from UniProt Q13546)",1.04
2,"AURKA, construct: Full length (from UniProt O14965)",0.176
3,"PRKACB, construct: Full length (from UniProt P22694)",0.25

# Same assay, conditions: M fixed; at -3
row,Substance,relative phosphorylation
1,"RIPK1, construct: aa1-327 (from UniProt Q13546)",1.08
2,"AURKA, construct: Full length (from UniProt O14965)",0.541
3,"PRKACB, construct: Full length (from UniProt P22694)",0.204

# Same assay, conditions: M fixed; at -4
row,Substance,relative phosphorylation
1,"RIPK1, construct: aa1-327 (from UniProt Q13546)",1.13
2,"AURKA, construct: Full length (from UniProt O14965)",0.818
3,"PRKACB, construct: Full length (from UniProt P22694)",0.782

# Same assay, conditions: M fixed; at -5
row,Substance,relative phosphorylation
1,"RIPK1, construct: aa1-327 (from UniProt Q13546)",1.2
2,"AURKA, construct: Full length (from UniProt O14965)",0.722
3,"PRKACB, construct: Full length (from UniProt P22694)",0.601

# Same assay, conditions: N fixed; at +1
row,Substance,relative phosphorylation
1,"RIPK1, construct: aa1-327 (from UniProt Q13546)",0.583
2,"AURKA, construct: Full length (from UniProt O14965)",0.852
3,"PRKACB, construct: Full length (from UniProt P22694)",1.2

# Same assay, conditions: N fixed; at +2
row,Substance,relative phosphorylation
1,"RIPK1, construct: aa1-327 (from UniProt Q13546)",0.801
2,"AURKA, construct: Full length (from UniProt O14965)",0.649
3,"PRKACB, construct: Full length (from UniProt P22694)",1.23

# Same assay, conditions: N fixed; at +3
row,Substance,relative phosphorylation
1,"RIPK1, construct: aa1-327 (from UniProt Q13546)",0.726
2,"AURKA, construct: Full length (from UniProt O14965)",0.798
3,"PRKACB, construct: Full length (from UniProt P22694)",1.24

# Same assay, conditions: N fixed; at +4
row,Substance,relative phosphorylation
1,"RIPK1, construct: aa1-327 (from UniProt Q13546)",0.839
2,"AURKA, construct: Full length (from UniProt O14965)",1.26
3,"PRKACB, construct: Full length (from UniProt P22694)",1.25

# Same assay, conditions: N fixed; at -1
row,Substance,relative phosphorylation
1,"RIPK1, construct: aa1-327 (from UniProt Q13546)",1.3
2,"AURKA, construct: Full length (from UniProt O14965)",1.15
3,"PRKACB, construct: Full length (from UniProt P22694)",1.52

# Same assay, conditions: N fixed; at -2
row,Substance,relative phosphorylation
1,"RIPK1, construct: aa1-327 (from UniProt Q13546)",0.975
2,"AURKA, construct: Full length (from UniProt O14965)",0.345
3,"PRKACB, construct: Full length (from UniProt P22694)",0.566

# Same assay, conditions: N fixed; at -3
row,Substance,relative phosphorylation
1,"RIPK1, construct: aa1-327 (from UniProt Q13546)",0.829
2,"AURKA, construct: Full length (from UniProt O14965)",0.857
3,"PRKACB, construct: Full length (from UniProt P22694)",0.495

# Same assay, conditions: N fixed; at -4
row,Substance,relative phosphorylation
1,"RIPK1, construct: aa1-327 (from UniProt Q13546)",0.76
2,"AURKA, construct: Full length (from UniProt O14965)",1.04
3,"PRKACB, construct: Full length (from UniProt P22694)",1.04

# Same assay, conditions: N fixed; at -5
row,Substance,relative phosphorylation
1,"RIPK1, construct: aa1-327 (from UniProt Q13546)",0.797
2,"AURKA, construct: Full length (from UniProt O14965)",1.2
3,"PRKACB, construct: Full length (from UniProt P22694)",0.983

# Same assay, conditions: P fixed; at +1
row,Substance,relative phosphorylation
1,"RIPK1, construct: aa1-327 (from UniProt Q13546)",0.198
2,"AURKA, construct: Full length (from UniProt O14965)",0.211
3,"PRKACB, construct: Full length (from UniProt P22694)",0.382

# Same assay, conditions: P fixed; at +2
row,Substance,relative phosphorylation
1,"RIPK1, construct: aa1-327 (from UniProt Q13546)",0.568
2,"AURKA, construct: Full length (from UniProt O14965)",0.78
3,"PRKACB, construct: Full length (from UniProt P22694)",1.29

# Same assay, conditions: P fixed; at +3
row,Substance,relative phosphorylation
1,"RIPK1, construct: aa1-327 (from UniProt Q13546)",0.355
2,"AURKA, construct: Full length (from UniProt O14965)",1.3
3,"PRKACB, construct: Full length (from UniProt P22694)",1.58

# Same assay, conditions: P fixed; at +4
row,Substance,relative phosphorylation
1,"RIPK1, construct: aa1-327 (from UniProt Q13546)",1.14
2,"AURKA, construct: Full length (from UniProt O14965)",0.969
3,"PRKACB, construct: Full length (from UniProt P22694)",1.74

# Same assay, conditions: P fixed; at -1
row,Substance,relative phosphorylation
1,"RIPK1, construct: aa1-327 (from UniProt Q13546)",0.453
2,"AURKA, construct: Full length (from UniProt O14965)",0.748
3,"PRKACB, construct: Full length (from UniProt P22694)",1.44

# Same assay, conditions: P fixed; at -2
row,Substance,relative phosphorylation
1,"RIPK1, construct: aa1-327 (from UniProt Q13546)",1.11
2,"AURKA, construct: Full length (from UniProt O14965)",0.289
3,"PRKACB, construct: Full length (from UniProt P22694)",0.271

# Same assay, conditions: P fixed; at -3
row,Substance,relative phosphorylation
1,"RIPK1, construct: aa1-327 (from UniProt Q13546)",0.927
2,"AURKA, construct: Full length (from UniProt O14965)",0.883
3,"PRKACB, construct: Full length (from UniProt P22694)",0.824

# Same assay, conditions: P fixed; at -4
row,Substance,relative phosphorylation
1,"RIPK1, construct: aa1-327 (from UniProt Q13546)",1.02
2,"AURKA, construct: Full length (from UniProt O14965)",0.905
3,"PRKACB, construct: Full length (from UniProt P22694)",1.19

# Same assay, conditions: P fixed; at -5
row,Substance,relative phosphorylation
1,"RIPK1, construct: aa1-327 (from UniProt Q13546)",0.833
2,"AURKA, construct: Full length (from UniProt O14965)",0.738
3,"PRKACB, construct: Full length (from UniProt P22694)",1.21

# Same assay, conditions: Q fixed; at +1
row,Substance,relative phosphorylation
1,"RIPK1, construct: aa1-327 (from UniProt Q13546)",1.19
2,"AURKA, construct: Full length (from UniProt O14965)",0.735
3,"PRKACB, construct: Full length (from UniProt P22694)",1.3

# Same assay, conditions: Q fixed; at +2
row,Substance,relative phosphorylation
1,"RIPK1, construct: aa1-327 (from UniProt Q13546)",0.891
2,"AURKA, construct: Full length (from UniProt O14965)",0.629
3,"PRKACB, construct: Full length (from UniProt P22694)",1.23

# Same assay, conditions: Q fixed; at +3
row,Substance,relative phosphorylation
1,"RIPK1, construct: aa1-327 (from UniProt Q13546)",0.703
2,"AURKA, construct: Full length (from UniProt O14965)",0.843
3,"PRKACB, construct: Full length (from UniProt P22694)",1.22

# Same assay, conditions: Q fixed; at +4
row,Substance,relative phosphorylation
1,"RIPK1, construct: aa1-327 (from UniProt Q13546)",0.787
2,"AURKA, construct: Full length (from UniProt O14965)",1.06
3,"PRKACB, construct: Full length (from UniProt P22694)",1.34

# Same assay, conditions: Q fixed; at -1
row,Substance,relative phosphorylation
1,"RIPK1, construct: aa1-327 (from UniProt Q13546)",0.85
2,"AURKA, construct: Full length (from UniProt O14965)",1.09
3,"PRKACB, construct: Full length (from UniProt P22694)",1.17

# Same assay, conditions: Q fixed; at -2
row,Substance,relative phosphorylation
1,"RIPK1, construct: aa1-327 (from UniProt Q13546)",0.796
2,"AURKA, construct: Full length (from UniProt O14965)",0.608
3,"PRKACB, construct: Full length (from UniProt P22694)",0.555

# Same assay, conditions: Q fixed; at -3
row,Substance,relative phosphorylation
1,"RIPK1, construct: aa1-327 (from UniProt Q13546)",0.743
2,"AURKA, construct: Full length (from UniProt O14965)",0.667
3,"PRKACB, construct: Full length (from UniProt P22694)",0.715

# Same assay, conditions: Q fixed; at -4
row,Substance,relative phosphorylation
1,"RIPK1, construct: aa1-327 (from UniProt Q13546)",0.689
2,"AURKA, construct: Full length (from UniProt O14965)",0.908
3,"PRKACB, construct: Full length (from UniProt P22694)",1.04

# Same assay, conditions: Q fixed; at -5
row,Substance,relative phosphorylation
1,"RIPK1, construct: aa1-327 (from UniProt Q13546)",0.667
2,"AURKA, construct: Full length (from UniProt O14965)",0.802
3,"PRKACB, construct: Full length (from UniProt P22694)",0.97

# Same assay, conditions: R fixed; at +1
row,Substance,relative phosphorylation
1,"RIPK1, construct: aa1-327 (from UniProt Q13546)",2.48
2,"AURKA, construct: Full length (from UniProt O14965)",0.425
3,"PRKACB, construct: Full length (from UniProt P22694)",1.35

# Same assay, conditions: R fixed; at +2
row,Substance,relative phosphorylation
1,"RIPK1, construct: aa1-327 (from UniProt Q13546)",1.02
2,"AURKA, construct: Full length (from UniProt O14965)",0.509
3,"PRKACB, construct: Full length (from UniProt P22694)",0.937

# Same assay, conditions: R fixed; at +3
row,Substance,relative phosphorylation
1,"RIPK1, construct: aa1-327 (from UniProt Q13546)",1.13
2,"AURKA, construct: Full length (from UniProt O14965)",0.821
3,"PRKACB, construct: Full length (from UniProt P22694)",1.04

# Same assay, conditions: R fixed; at +4
row,Substance,relative phosphorylation
1,"RIPK1, construct: aa1-327 (from UniProt Q13546)",0.945
2,"AURKA, construct: Full length (from UniProt O14965)",1.24
3,"PRKACB, construct: Full length (from UniProt P22694)",0.93

# Same assay, conditions: R fixed; at -1
row,Substance,relative phosphorylation
1,"RIPK1, construct: aa1-327 (from UniProt Q13546)",1.97
2,"AURKA, construct: Full length (from UniProt O14965)",1.16
3,"PRKACB, construct: Full length (from UniProt P22694)",2.14

# Same assay, conditions: R fixed; at -2
row,Substance,relative phosphorylation
1,"RIPK1, construct: aa1-327 (from UniProt Q13546)",1.94
2,"AURKA, construct: Full length (from UniProt O14965)",11.7
3,"PRKACB, construct: Full length (from UniProt P22694)",8.75

# Same assay, conditions: R fixed; at -3
row,Substance,relative phosphorylation
1,"RIPK1, construct: aa1-327 (from UniProt Q13546)",2.35
2,"AURKA, construct: Full length (from UniProt O14965)",4.83
3,"PRKACB, construct: Full length (from UniProt P22694)",7.65

# Same assay, conditions: R fixed; at -4
row,Substance,relative phosphorylation
1,"RIPK1, construct: aa1-327 (from UniProt Q13546)",1.4
2,"AURKA, construct: Full length (from UniProt O14965)",1.71
3,"PRKACB, construct: Full length (from UniProt P22694)",2.38

# Same assay, conditions: R fixed; at -5
row,Substance,relative phosphorylation
1,"RIPK1, construct: aa1-327 (from UniProt Q13546)",1.32
2,"AURKA, construct: Full length (from UniProt O14965)",1.67
3,"PRKACB, construct: Full length (from UniProt P22694)",2.14

# Same assay, conditions: V fixed; at +1
row,Substance,relative phosphorylation
1,"RIPK1, construct: aa1-327 (from UniProt Q13546)",0.96
2,"AURKA, construct: Full length (from UniProt O14965)",1.11
3,"PRKACB, construct: Full length (from UniProt P22694)",0.892

# Same assay, conditions: V fixed; at +2
row,Substance,relative phosphorylation
1,"RIPK1, construct: aa1-327 (from UniProt Q13546)",1.03
2,"AURKA, construct: Full length (from UniProt O14965)",0.766
3,"PRKACB, construct: Full length (from UniProt P22694)",0.59
